Data taken from patent US20120172293A1 (Takeda / Millennium, published 2012).
Starred links: 1 amine or outer side, 2 acyl side, 3 side chain; linkers in the order of their positions; H or OH if unused. Non-standard residues stand in square brackets, D forms with d. *: point of attachment. Imidazole4carbonyl = O=C(c1cnc[nH]1)*; 4Pal = N[C@@H](Cc1ccncc1)C(=O)O; Cha = N[C@@H](CC1CCCCC1)C(=O)O; Isonicotinoyl = O=C(c1ccncc1)*; Suc = O=C(CCC(=O)[*:2])[*:1]; Aib = CC(C)(N)C(=O)O

B1: 3-Carboxypropionyl-[Gln23, D-Pro24, Pya(4)26, Cha27,36, Aib28,31, Lys30]-PYY(23-36) (peptide)
peptide: Suc-Q[dP]R[4Pal][Cha][Aib]NK[Aib]TRQR[Cha]-NH2
SMILES: C[C@@H](O)[C@H](NC(=O)C(C)(C)NC(=O)[C@H](CCCCN)NC(=O)[C@H](CC(N)=O)NC(=O)C(C)(C)NC(=O)[C@H](CC1CCCCC1)NC(=O)[C@H](Cc1ccncc1)NC(=O)[C@H](CCCNC(=N)N)NC(=O)[C@H]1CCCN1C(=O)[C@H](CCC(N)=O)NC(=O)CCC(=O)O)C(=O)N[C@@H](CCCNC(=N)N)C(=O)N[C@@H](CCC(N)=O)C(=O)N[C@@H](CCCNC(=N)N)C(=O)N[C@@H](CC1CCCCC1)C(N)=O
B2: Ac-[Glu23, D-Pro24, Pya(4)26, Cha27,36, Aib28,31, Lys30]-PYY(22-36) (peptide)
peptide: Ac-AE[dP]R[4Pal][Cha][Aib]NK[Aib]TRQR[Cha]-NH2
SMILES: CC(=O)N[C@@H](C)C(=O)N[C@@H](CCC(=O)O)C(=O)N1CCC[C@@H]1C(=O)N[C@@H](CCCNC(=N)N)C(=O)N[C@@H](Cc1ccncc1)C(=O)N[C@@H](CC1CCCCC1)C(=O)NC(C)(C)C(=O)N[C@@H](CC(N)=O)C(=O)N[C@@H](CCCCN)C(=O)NC(C)(C)C(=O)N[C@H](C(=O)N[C@@H](CCCNC(=N)N)C(=O)N[C@@H](CCC(N)=O)C(=O)N[C@@H](CCCNC(=N)N)C(=O)N[C@@H](CC1CCCCC1)C(N)=O)[C@@H](C)O
B3: 4-Imidazolecarbonyl-[Glu23, D-Pro24, Pya(4)26, Cha27,36, Aib28,31, Lys30]-PYY(23-36) (peptide)
peptide: Imidazole4carbonyl-E[dP]R[4Pal][Cha][Aib]NK[Aib]TRQR[Cha]-NH2
SMILES: C[C@@H](O)[C@H](NC(=O)C(C)(C)NC(=O)[C@H](CCCCN)NC(=O)[C@H](CC(N)=O)NC(=O)C(C)(C)NC(=O)[C@H](CC1CCCCC1)NC(=O)[C@H](Cc1ccncc1)NC(=O)[C@H](CCCNC(=N)N)NC(=O)[C@H]1CCCN1C(=O)[C@H](CCC(=O)O)NC(=O)c1cnc[nH]1)C(=O)N[C@@H](CCCNC(=N)N)C(=O)N[C@@H](CCC(N)=O)C(=O)N[C@@H](CCCNC(=N)N)C(=O)N[C@@H](CC1CCCCC1)C(N)=O
B4: 4-Pyridinecarbonyl-[Glu23, D-Pro24, Pya(4)26, Cha27,36, Aib28,31, Lys30]-PYY(23-36) (peptide)
peptide: Isonicotinoyl-E[dP]R[4Pal][Cha][Aib]NK[Aib]TRQR[Cha]-NH2
SMILES: C[C@@H](O)[C@H](NC(=O)C(C)(C)NC(=O)[C@H](CCCCN)NC(=O)[C@H](CC(N)=O)NC(=O)C(C)(C)NC(=O)[C@H](CC1CCCCC1)NC(=O)[C@H](Cc1ccncc1)NC(=O)[C@H](CCCNC(=N)N)NC(=O)[C@H]1CCCN1C(=O)[C@H](CCC(=O)O)NC(=O)c1ccncc1)C(=O)N[C@@H](CCCNC(=N)N)C(=O)N[C@@H](CCC(N)=O)C(=O)N[C@@H](CCCNC(=N)N)C(=O)N[C@@H](CC1CCCCC1)C(N)=O
B5: Ac-[D-Pro24, Pya(4)26, Cha27,36, Aib28,31, Lys30]-PYY(22-36) (peptide)
peptide: Ac-AS[dP]R[4Pal][Cha][Aib]NK[Aib]TRQR[Cha]-NH2
SMILES: CC(=O)N[C@@H](C)C(=O)N[C@@H](CO)C(=O)N1CCC[C@@H]1C(=O)N[C@@H](CCCNC(=N)N)C(=O)N[C@@H](Cc1ccncc1)C(=O)N[C@@H](CC1CCCCC1)C(=O)NC(C)(C)C(=O)N[C@@H](CC(N)=O)C(=O)N[C@@H](CCCCN)C(=O)NC(C)(C)C(=O)N[C@H](C(=O)N[C@@H](CCCNC(=N)N)C(=O)N[C@@H](CCC(N)=O)C(=O)N[C@@H](CCCNC(=N)N)C(=O)N[C@@H](CC1CCCCC1)C(N)=O)[C@@H](C)O

target: human Y2 receptor (human) (UniProt P49146); assay: RBA: displacement of [125I]-PYY from hY2R/CHO membranes
Sequence (P49146 whole entry): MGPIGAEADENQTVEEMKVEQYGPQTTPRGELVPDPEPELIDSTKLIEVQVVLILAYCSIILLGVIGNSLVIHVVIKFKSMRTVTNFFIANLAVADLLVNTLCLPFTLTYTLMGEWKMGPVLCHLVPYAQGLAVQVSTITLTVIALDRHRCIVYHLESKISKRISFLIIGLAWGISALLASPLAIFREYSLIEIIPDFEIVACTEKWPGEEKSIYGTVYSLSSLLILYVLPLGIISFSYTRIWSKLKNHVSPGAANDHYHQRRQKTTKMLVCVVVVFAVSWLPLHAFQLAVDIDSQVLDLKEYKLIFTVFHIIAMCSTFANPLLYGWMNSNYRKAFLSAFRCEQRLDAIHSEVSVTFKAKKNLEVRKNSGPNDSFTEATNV

IC50 Ratio (IC50 compound/IC50 PYY(3-36))	Binder
2	B1
5.3	B2
1.3	B3
1.9	B4
2.3	B5

target: human Y2 receptor (human) (UniProt P49146); assay: cell-based or functional assay

GBA EC50 Ratio ([35S]GTPγS binding) (EC50 compound/EC50 PYY(3-36))	Binder
1.9	B1
3.5	B2
1.3	B3
1.8	B4
1.7	B5
